Consider eight molecules from PMC5146981, “MMP-13 is constitutively produced in human chondrocytes and co-endocytosed with ADAMTS-5 and TIMP-3 by the endocytic receptor LRP1” (Matrix Biology, 2016).

The target of experiment [1] is LRP1 ligand-binding cluster III (human, UniProt Q07954 2522-2940). Description: ELISA; purified LRP1 fragments (clusters I to IV) coated on microtiter plates; proMMP-13(E223A) or Hpx_(MMP-13) 0-200 nM; detected with anti-MMP-13 181-14G11; extrapolated apparent KD (K_D,app).
Sequence of LRP1 ligand-binding cluster III (Q07954 2522-2940): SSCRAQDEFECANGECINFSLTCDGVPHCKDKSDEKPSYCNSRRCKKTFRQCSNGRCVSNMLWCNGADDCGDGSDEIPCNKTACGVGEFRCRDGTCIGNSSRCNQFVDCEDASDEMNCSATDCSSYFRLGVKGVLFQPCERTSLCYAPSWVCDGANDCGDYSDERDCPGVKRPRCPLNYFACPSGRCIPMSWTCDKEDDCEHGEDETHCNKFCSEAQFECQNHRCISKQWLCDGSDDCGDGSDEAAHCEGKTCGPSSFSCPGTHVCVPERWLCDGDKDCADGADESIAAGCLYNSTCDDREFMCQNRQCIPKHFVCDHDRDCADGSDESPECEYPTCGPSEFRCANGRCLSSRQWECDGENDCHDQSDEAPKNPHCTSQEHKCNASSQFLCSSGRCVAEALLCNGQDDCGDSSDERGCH
In experiment [2] the target is T1, LRP1 ligand-binding cluster II (human, UniProt Q07954 852-1182).
T1 construct: also called soluble LRP1 cluster II
T1 sequence (looked up): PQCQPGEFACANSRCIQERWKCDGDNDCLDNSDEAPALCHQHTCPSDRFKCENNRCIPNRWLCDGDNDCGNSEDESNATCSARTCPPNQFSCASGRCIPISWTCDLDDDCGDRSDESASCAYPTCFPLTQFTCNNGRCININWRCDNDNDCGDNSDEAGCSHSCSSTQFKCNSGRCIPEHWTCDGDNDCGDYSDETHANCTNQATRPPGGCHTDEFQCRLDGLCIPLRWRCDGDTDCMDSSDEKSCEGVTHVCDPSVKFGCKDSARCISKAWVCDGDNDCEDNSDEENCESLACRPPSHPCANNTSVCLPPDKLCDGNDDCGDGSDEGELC
The experiment is described as above.

Experiment [3] has as its target LRP1 ligand-binding cluster IV (human) (UniProt Q07954). The experiment is described as above.
Experiment [4] concerns the target LRP1 ligand-binding cluster I (human) (UniProt Q07954). The experiment is described as above.
Experiment [5] has as its target purified human full-length LRP1 (low-density lipoprotein receptor-related protein 1) (human). Kind of experiment: ELISA; full-length LRP1 coated; proMMP-13(E223A) 0-40 nM in the absence or presence of 50 nM ADAMTS-5, 250 nM ADAMTS-4 or 50 nM TIMP-3 plus 50 μM CT1746; apparent KD (K_D,app). In general terms: ELISA stands for enzyme-linked immunosorbent assay.
Experiment [6] has the same target. Kind of experiment: ELISA; solid-phase binding; full-length LRP1 (5 nM in TNC) coated on microtiter plates overnight at 4 °C, blocked with 3% BSA; MMPs 0-50 nM for 3 h at room temperature; detected with anti-MMP antibodies and HRP secondary antibody; apparent KD (K_D,app).
Experiment [7] deals with purified human full-length LRP1 (low-density lipoprotein receptor-related protein 1). Description: solid-phase binding assay (ELISA) on immobilized LRP1. The conditions noted are these: point at 50 nM MMP, read off a plot.
The target is the same in experiment [8]. Description: competition solid-phase binding assay (ELISA) on immobilized LRP1. The conditions noted are these: 200 nM proMMP-1(E200A) as competitor of 6 nM proMMP-13(E223A); detection with anti-FLAG M2 antibody; read off a plot.
For experiment [9], the target named is purified human full-length LRP1 (low-density lipoprotein receptor-related protein 1) (human).

Read-outs that look alike come from different tables or passages of the source. Where only a bound is given, the exact number is not on record here.

Sequence of LRP1 ligand-binding cluster IV (human) (Q07954 20-4544): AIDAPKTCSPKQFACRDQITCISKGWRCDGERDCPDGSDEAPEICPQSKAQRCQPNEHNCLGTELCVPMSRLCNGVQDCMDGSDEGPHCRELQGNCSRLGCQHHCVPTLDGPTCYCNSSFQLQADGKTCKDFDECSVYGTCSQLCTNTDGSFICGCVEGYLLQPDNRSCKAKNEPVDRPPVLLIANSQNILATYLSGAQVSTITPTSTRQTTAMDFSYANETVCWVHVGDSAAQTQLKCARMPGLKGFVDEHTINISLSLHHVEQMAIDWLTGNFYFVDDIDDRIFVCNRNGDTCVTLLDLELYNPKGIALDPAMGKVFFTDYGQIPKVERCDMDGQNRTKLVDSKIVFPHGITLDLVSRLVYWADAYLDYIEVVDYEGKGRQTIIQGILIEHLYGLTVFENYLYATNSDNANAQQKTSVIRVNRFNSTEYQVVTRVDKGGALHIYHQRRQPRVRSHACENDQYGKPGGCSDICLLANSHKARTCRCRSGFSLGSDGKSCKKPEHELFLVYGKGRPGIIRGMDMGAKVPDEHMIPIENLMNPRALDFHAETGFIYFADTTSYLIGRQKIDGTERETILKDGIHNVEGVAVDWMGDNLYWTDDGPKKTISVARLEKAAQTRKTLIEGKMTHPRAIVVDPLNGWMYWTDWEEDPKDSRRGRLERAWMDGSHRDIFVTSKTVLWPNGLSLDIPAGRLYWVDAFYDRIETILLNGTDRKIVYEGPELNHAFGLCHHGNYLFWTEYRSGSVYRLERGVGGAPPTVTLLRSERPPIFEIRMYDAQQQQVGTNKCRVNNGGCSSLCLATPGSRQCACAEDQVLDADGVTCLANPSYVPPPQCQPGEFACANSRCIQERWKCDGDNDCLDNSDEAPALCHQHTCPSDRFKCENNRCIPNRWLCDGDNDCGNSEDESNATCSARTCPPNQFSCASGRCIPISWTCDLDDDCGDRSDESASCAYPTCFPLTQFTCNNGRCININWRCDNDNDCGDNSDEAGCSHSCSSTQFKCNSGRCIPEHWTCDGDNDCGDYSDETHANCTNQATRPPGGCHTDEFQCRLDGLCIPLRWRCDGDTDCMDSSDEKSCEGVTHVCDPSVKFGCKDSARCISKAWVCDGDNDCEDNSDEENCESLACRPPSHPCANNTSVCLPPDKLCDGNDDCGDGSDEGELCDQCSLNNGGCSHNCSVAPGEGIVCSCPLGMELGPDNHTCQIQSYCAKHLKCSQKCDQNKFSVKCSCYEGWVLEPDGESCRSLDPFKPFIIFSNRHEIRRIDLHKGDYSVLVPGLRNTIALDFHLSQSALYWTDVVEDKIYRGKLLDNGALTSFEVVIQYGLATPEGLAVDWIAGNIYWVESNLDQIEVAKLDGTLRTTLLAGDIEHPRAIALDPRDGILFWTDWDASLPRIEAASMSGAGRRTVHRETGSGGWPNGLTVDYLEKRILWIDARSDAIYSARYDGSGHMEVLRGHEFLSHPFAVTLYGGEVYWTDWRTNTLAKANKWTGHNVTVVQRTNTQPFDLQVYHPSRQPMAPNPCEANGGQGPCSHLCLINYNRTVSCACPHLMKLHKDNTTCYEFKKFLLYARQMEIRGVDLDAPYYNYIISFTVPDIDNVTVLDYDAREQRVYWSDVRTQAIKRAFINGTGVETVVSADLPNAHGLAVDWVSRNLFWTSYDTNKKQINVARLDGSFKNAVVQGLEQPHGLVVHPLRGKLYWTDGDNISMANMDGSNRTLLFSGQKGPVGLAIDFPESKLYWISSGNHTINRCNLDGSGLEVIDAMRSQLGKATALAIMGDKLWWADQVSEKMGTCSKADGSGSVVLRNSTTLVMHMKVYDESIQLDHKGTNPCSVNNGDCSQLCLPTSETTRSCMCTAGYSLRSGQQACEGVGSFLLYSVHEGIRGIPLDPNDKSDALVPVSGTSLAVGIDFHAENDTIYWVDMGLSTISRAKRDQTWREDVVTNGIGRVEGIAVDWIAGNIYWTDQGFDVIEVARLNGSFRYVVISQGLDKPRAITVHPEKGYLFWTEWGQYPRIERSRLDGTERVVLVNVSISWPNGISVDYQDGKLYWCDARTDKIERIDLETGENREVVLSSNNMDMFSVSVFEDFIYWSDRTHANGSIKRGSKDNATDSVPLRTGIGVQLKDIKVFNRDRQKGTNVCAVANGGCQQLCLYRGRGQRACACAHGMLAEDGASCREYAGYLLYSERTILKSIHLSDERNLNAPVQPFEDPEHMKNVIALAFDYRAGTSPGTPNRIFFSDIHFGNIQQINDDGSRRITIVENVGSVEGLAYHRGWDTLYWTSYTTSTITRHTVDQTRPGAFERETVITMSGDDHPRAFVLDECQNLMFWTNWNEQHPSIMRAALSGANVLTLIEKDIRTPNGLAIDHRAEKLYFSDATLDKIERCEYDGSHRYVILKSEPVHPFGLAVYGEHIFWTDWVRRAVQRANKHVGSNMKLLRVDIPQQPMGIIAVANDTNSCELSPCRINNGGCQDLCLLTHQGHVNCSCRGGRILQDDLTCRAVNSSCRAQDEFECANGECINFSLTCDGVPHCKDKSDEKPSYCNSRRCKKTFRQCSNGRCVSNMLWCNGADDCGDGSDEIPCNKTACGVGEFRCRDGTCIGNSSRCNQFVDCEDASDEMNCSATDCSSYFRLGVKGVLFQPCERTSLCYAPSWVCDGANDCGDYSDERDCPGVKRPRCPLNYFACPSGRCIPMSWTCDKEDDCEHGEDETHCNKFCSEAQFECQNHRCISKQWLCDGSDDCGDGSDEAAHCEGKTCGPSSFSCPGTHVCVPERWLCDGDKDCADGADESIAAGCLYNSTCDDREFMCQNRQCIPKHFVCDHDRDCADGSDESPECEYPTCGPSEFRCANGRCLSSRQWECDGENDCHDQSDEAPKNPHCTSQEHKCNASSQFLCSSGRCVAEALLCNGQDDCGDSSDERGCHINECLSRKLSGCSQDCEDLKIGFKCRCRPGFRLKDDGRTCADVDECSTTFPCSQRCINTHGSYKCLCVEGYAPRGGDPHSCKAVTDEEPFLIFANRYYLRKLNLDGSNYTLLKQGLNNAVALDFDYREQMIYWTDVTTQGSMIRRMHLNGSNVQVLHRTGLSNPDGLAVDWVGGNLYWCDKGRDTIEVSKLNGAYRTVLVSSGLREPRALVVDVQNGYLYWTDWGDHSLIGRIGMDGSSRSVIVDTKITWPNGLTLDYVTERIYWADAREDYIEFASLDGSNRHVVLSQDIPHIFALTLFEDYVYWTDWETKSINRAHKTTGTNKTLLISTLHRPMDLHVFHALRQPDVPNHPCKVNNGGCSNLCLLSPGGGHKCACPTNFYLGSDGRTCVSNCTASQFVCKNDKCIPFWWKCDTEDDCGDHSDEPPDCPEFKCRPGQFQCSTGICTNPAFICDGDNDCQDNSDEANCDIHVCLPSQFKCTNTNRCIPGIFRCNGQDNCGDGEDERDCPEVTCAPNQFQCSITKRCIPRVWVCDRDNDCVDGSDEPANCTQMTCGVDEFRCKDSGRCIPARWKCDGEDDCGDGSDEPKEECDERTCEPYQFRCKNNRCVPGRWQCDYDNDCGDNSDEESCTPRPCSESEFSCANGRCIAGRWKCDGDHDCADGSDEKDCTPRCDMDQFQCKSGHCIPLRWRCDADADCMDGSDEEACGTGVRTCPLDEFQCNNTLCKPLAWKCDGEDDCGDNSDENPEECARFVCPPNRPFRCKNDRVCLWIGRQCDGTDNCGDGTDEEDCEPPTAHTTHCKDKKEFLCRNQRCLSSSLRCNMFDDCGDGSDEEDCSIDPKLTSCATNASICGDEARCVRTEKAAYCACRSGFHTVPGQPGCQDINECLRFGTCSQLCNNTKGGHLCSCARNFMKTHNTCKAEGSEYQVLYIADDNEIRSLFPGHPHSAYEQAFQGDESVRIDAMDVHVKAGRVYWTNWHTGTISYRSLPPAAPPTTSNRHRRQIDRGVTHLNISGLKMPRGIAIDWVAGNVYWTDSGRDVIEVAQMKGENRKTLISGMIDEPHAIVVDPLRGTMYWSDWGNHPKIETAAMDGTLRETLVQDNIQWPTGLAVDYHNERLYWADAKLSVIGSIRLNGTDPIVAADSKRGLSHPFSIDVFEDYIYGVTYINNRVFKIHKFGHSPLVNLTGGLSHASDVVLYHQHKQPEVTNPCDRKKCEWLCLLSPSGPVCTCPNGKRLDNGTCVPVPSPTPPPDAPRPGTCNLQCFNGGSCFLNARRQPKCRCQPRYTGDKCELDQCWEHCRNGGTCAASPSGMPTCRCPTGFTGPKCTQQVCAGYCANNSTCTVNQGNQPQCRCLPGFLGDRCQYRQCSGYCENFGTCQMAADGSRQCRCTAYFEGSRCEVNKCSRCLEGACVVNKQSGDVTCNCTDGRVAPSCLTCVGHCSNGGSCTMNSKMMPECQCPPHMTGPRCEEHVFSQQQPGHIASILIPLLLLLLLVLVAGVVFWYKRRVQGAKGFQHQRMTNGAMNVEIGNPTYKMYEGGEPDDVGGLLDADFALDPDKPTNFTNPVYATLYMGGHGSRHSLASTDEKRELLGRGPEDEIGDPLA
Sequence of LRP1 ligand-binding cluster I (human) (Q07954 20-4544): as above

Take “proMMP-13(E223A) (from UniProt P45452 20-471) (enzyme)”: the Kd in experiment [1] is 24 nM; in [2] it was 17 nM; in experiment [3] it was more than 100 nM; in [4] it was more than 200 nM; in [6] it was 6 nM. Further, the K D,app in the presence of 50 nM ADAMTS-5 in experiment [5] came to 5.2 nM. The K D,app in the presence of 50 nM TIMP-3 in experiment [5] was 8.2 nM. Also, the K D,app in the presence of 250 nM ADAMTS-4 in [5] came out at 5.6 nM.
Molecule proMMP-1 E200A gave a response (absorbance at 450 nm) in experiment [7] (detection with anti-MMP-1 (SB12e) antibody) of 0.13. The other: ProMMP-13 bound to LRP1 (% of amount bound without competitor) in [8] worked out at 100%.
For “proMMP-13(WT), MMP-13 with a FLAG tag between the signal and propeptide (enzyme)”, in [9], the proMMP-13 (10 nM) found in the cell lysate after 1 h with human chondrocytes at 4 °C (surface binding); abolished in the presence of 500 nM RAP is 25%. Further, the Kd in experiment [6] turned out to be 5.9 nM.
On to “MMP-13(E223A), activated form (from UniProt P45452 104-471) (enzyme)”, for which, in experiment [6], the Kd was found to be 3.8 nM.
Same read-out and setting: the result for “proMMP-1-1-13(E200A) (MMP-1_(1-258)-MMP-13_(264-451)) (enzyme)” reads 5.1 nM.
In turn, proMMP-3 E202A gave a response (absorbance at 450 nm) in experiment [7] (detection with anti-MMP-3 (4B7.3) antibody) of 0.25.
On to “proMMP-13(WT), MMP-13 with a FLAG tag between the signal and propeptide”, for which the clearance of 10 nM exogenous proMMP-13 from the medium of human chondrocytes, 0-4 h, Western blot; inhibited by 500 nM RAP and in LRP1-silenced cells in experiment [9] was found to be 70 min.

B1: hemopexin domain of MMP-13 (Hpx_(MMP-13)) (domain or fragment, human, UniProt P45452 284-471, looked up)
chain: CDPSLSLDAITSLRGETMIFKDRFFWRLHPQQVDAELFLTKSFWPELPNRIDAAYEHPSHDLIFIFRGRKFWALNGYDILEGYPKKISELGLPKEVKKISAAVHFEDTGKTLLFSGNQVWRYDDTNHIMDKDYPRLIEEDFPGIGDKVDAVYEKNGYIYFFNGPIQFEYSIWSNRIVRVMPANSILWC
notes: MMP-13 (collagenase 3), human, hemopexin domain released by autolysis; also called Hpx domain of MMP-13; source: from proMMP-13 incubated with 1 mM APMA at 37 °C for at least 16 h
With B1, the Kd is 13 nM in experiment [1] (both partners purified); 15 nM in [2] (both partners purified); more than 50 nM in [3]; more than 200 nM in experiment [4]; 2.7 nM in [6].
